Data as given in article PMC5979607, “Crystal Structure of the Isocitrate Dehydrogenase 2 from Acinetobacter baumannii (AbIDH2) Reveals a Novel Dimeric Structure with Two Monomeric-IDH-Like Subunits” (International Journal of Molecular Sciences, 2018).

How the values were obtained:
[1] = biological target: Isocitrate dehydrogenase 2 from Acinetobacter baumannii (AbIDH2) (Acinetobacter baumannii); assay: AUC; sedimentation velocity, Beckman XL-A, An-60 Ti rotor, 20 °C, 45,000 g, continuous c(s) distribution
[2] = biological target: Isocitrate dehydrogenase 2 from Acinetobacter baumannii (AbIDH2) (Acinetobacter baumannii); assay: SEC; analytical gel filtration, Superdex 200 10/300 column, 50 mM NaH2PO4 pH 7.5, 300 mM NaCl, flow rate 0.5 mL/min; mass from a calibration curve
[3] = test system: NC(=O)c1ccc[n+]([C@@H]2O[C@H](COP(=O)(O)OP(=O)(O)OC[C@H]3O[C@@H](n4cnc5c(N)ncnc54)[C@H](OP(=O)(O)O)[C@@H]3O)[C@@H](O)[C@H]2O)c1; assay: purified protein; conditions: Mn2+ (2 mM MnCl2), 1.0 mM isocitrate, 35 mM Tris-HCl pH 7.5, 25 °C, varied: cofactor
[4] = test system: O=C(O)CC(C(=O)O)C(O)C(=O)O; assay: purified protein; conditions: Mn2+ (2 mM MnCl2), NADP+ co-substrate, 35 mM Tris-HCl pH 7.5, 25 °C, DL-isocitrate in the assay

| Substance | stoichiometry N [1] | stoichiometry N [2] | Km [3] [µM] | kcat [3] [s⁻¹] | kcat/Km [3] [M⁻¹ s⁻¹] | Km [4] [µM] | kcat [4] [s⁻¹] |
| --- | --- | --- | --- | --- | --- | --- | --- |
| Isocitrate dehydrogenase 2 from Acinetobacter baumannii (AbIDH2) (enzyme) | 2 | 2 |  |  |  |  |  |
| AbIDH2 (Acinetobacter baumannii ATCC 19606 = CIP 70.34 = JCM 6841) |  |  | 94 ± 6 | 36.9 ± 1.2 | 390000 | 20.6 ± 3.1 | 39.2 ± 2.1 |
